According to US20250051444A1 (published 2025):

T1: cynomolgus LRRC15 (cynomolgus, UniProt G7NYR2 22-581)
T1 chain: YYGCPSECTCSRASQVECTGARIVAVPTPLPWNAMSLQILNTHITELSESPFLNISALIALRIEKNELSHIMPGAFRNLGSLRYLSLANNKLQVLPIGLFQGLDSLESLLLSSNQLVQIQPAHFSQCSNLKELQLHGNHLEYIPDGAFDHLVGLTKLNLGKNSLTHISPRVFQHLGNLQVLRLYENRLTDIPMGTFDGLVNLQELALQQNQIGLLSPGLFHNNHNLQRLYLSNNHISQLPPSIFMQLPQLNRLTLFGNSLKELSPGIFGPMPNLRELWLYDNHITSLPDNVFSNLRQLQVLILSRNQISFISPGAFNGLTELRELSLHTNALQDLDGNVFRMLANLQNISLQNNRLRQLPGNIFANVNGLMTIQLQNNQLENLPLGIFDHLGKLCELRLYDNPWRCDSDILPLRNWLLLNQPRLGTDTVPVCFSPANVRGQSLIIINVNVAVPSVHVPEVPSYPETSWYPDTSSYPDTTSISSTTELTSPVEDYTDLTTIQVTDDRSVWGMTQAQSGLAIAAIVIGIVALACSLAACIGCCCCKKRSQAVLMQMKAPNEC

T2: human LRRC15 (leucine-rich repeat containing protein 15) (human, UniProt Q8TF66 22-581)
T2 chain: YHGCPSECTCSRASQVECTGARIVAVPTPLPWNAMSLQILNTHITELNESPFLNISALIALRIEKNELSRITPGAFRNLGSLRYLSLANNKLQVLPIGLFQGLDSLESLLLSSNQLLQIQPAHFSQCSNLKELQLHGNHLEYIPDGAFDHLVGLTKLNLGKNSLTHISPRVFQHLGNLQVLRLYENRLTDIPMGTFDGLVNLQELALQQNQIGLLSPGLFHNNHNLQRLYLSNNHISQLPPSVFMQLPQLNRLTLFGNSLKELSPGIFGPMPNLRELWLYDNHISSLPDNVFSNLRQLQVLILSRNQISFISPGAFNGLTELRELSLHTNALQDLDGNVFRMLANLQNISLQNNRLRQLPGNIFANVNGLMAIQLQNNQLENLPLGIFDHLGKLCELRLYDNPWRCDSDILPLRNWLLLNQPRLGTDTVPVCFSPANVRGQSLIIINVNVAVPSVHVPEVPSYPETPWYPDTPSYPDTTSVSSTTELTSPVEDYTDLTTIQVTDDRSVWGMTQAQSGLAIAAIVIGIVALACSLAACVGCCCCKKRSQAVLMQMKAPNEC

B1: L15-08 (antibody, V domains shown)
VH: QVQLVESGGGLVKPGGSLRLSCAASGFTFSDYYMSWIRQAPGKGLEWVSDISVSSSYTNYADSVKGRFTISRDNAKNSLYLQMNSLRAEDTAVYYCARLGGYRSFFSTDDGDSLDYWGQGTLVTVSS
VL: not shown
B2: L15-06 (antibody, V domains shown)
VH: EVQLLESGGGLVQPGGSLRLSCAASGFTFSSYYMSWVRQAPGKGLEWVADISVSGSYTNYADSVKGRFTISRDNSKNTLYLQMNSLRAEDTAVYYCARIGSYRSFFSTDDGDSLDYWGQGTLVTVSS
VL: not shown
B3: L15-07 (antibody, V domains shown)
VH: QVQLVQSGAEVKKPGSSVKVSCKASGGTFSTYAISWVRQAPGQGLEWMGGITPMFGTPNYAQKFQGRVTITADESTSTAYMELSSLRSEDTAVYYCARGDWYDYHFDYWGQGTLVTVSS
VL: QSALTQPASVSGSPGQSITISCTGTSSDVGGYNYVSWYQQHPGKAPKLMIYEVSNRPSGVSNRFSGSKSGNTASLTISGLQAEDEADYYCQSYANRDNFVVFGGGTKLTVL
B4: L15-03 (antibody, V domains shown)
VH: QVQLVQSGAEVKKPGSSVKVSCKASGGTFSSYTISWVRQAPGQGLEWMGGIIPMFGTANYAQKFQGRVTITADESTSTAYMELSSLRSEDTAVYYCARGVALLATDFDYWGQGTLVTVSS
VL: QSALTQPASVSGSPGQSITISCTGTSSDVGGYNYVSWYQQHPGKAPKLMIYEVSNRPSGVSNRFSGSKSGNTASLTISGLQAEDEADYYCQSWTHDNSVVFGGGTKLTVL
B5: 315-L06C08 (bispecific antibody)
chain: not shown
heavy: QVQLVESGGGLVKPGGSLRLSCAASGFTFSDYYMSWIRQAPGKGLEWVSDISVSSSYTNYADSVKGRFTISRDNAKNSLYLQMNSLRAEDTAVYYCARLGGYRSFFSTDDGDSLDYWGQGTLVTVSSASTKGPSVFPLAPSSKSTSGGTAALGCLVKDYFPEPVTVSWNSGALTSGVHTFPAVLQSSGLYSLSSVVTVPSSSLGTQTYICNVNHKPSNTKVDKRVEPKSCDKTHTCPPCPAPEFEGGPSVFLFPPKPKDTLMISRTPEVTCVVVDVSHEDPEVKFNWYVDGVEVHNAKTKPREEQYNSTYRVVSVLTVLHQDWLNGKEYKCKVSNKALPASIEKTISKAKGQPREPQVCTLPPSRDELTKNQVSLTCLVEGFYPSDIAVEWESNGQPENNYKTTPPVLDSDGSFFLYSDLTVDKSRWQQGNVFSCSVMHEALHNHYTQESLSLSPGK
light: not shown
B6: 153-L06C (bispecific antibody)
chain 1: not shown
chain 2: EPKSCDKTHTCPPCPAPEFEGGPSVFLFPPKPKDTLMISRTPEVTCVVVDVSHEDPEVKFNWYVDGVEVHNAKTKPREEQYNSTYRVVSVLTVLHQDWLNGKEYKCKVSNKALPASIEKTISKAKGQPREPQVCTLPPSRDELTKNQVSLTCLVEGFYPSDIAVEWESNGQPENNYKTTPPVLDSDGSFFLYSDLTVDKSRWQQGNVFSCSVMHEALHNHYTQESLSLSPGK

Target: T1, cynomolgus LRRC15
Assay: FACS binding to CHO cells

EC50 [pM]	Binder
190	B1
239	B2
277	B3
165	B4

Target: T2, human LRRC15 (leucine-rich repeat …)
Assay: FACS binding to CHO cells

EC50 [pM]	Binder
488	B5
1150	B6

Target: T2, human LRRC15 (leucine-rich repeat …)
Assay: FACS binding to CHO cells
Remark: another data set of the same source

EC50 [pM]	Binder
633	B1
376	B2
259	B3
286	B4

Target: T1, cynomolgus LRRC15
Assay: FACS binding to CHO cells
Remark: another data set of the same source

EC50 [pM]	Binder
627	B5
1480	B6
